This note sets out measurements from patent US20190382503A1 (published 2019).

The target of one test is T1, human 5T4 on cells (human, UniProt Q13641 32-420).
T1 construct: Human 5T4 on transfected cells (CHO-K1, CT26, B16) or endogenous on human tumour lines; the cell line is named under assay; also called trophoblast glycoprotein; TPBG
T1 sequence: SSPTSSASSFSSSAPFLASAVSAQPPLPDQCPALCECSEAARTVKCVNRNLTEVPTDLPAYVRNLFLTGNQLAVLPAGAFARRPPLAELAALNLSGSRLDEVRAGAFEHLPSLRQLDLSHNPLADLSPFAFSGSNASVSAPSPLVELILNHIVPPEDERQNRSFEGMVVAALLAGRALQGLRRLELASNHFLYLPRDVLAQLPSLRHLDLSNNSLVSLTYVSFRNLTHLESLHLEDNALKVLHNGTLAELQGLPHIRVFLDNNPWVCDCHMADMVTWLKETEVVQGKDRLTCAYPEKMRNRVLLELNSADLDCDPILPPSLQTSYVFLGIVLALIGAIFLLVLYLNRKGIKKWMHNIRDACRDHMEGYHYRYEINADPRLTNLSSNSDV
The test is described as follows: flow cytometry, CHO-K1/human 5T4 cells (FIG. 4). On the procedure:
(§1) Binding studies were performed by standard flow cytometry-based staining procedures two cell lines expressing 5T4:CHO-K1 cells (obtained from Alligator) transduced with human or cynomolgus macaque 5T4 and SKOV-3 human ovarian adenocarcinoma cells which express (human) 5T4. All labeling and washes were performed in U-bottom 96-well plates in saline buffer with 0.1% BSA and 2 mM EDTA. Cell were plated at approximately 100,000 cells per well and incubated with a range of 100 nM to 0.05 nM concentrations of test molecules in 50 μL volume/well, for 30 minutes on ice. Cells were washed three times then incubated for another 30 min on ice with fluorescently-labeled secondary polyclonal antibody, F(ab′)² goat anti-human IgG (Jackson ImmunoResearch Laboratories). The cells were then washed twice and the samples acquired in a BD LSRII or a Symphony A3 flow cytometer. The sample files were analyzed using FlowJo software; the mean fluorescence intensity (MFI-mean) or median fluorescence intensity (MFI-median) of the live population of cells in each well was calculated after gating on live cells (forward vs side scatter). Nonlinear regression analysis to determine EC₅₀ values was performed in GraphPad Prism 6® graphing and statistics software.
The differences in EC₅₀ values between constructs were more evident when binding assays were conducted on SKOV-3 cells. […]
(In general: A flow cytometer gives signals particle by particle.)

The target in the next test is T2, cynomolgus 5T4 on cells (cynomolgus macaque, UniProt Q4R8Y9 35-420).
T2 construct: whole, on cells; also called CHO-K1/cynomolgus 5T4
T2 sequence (looked up): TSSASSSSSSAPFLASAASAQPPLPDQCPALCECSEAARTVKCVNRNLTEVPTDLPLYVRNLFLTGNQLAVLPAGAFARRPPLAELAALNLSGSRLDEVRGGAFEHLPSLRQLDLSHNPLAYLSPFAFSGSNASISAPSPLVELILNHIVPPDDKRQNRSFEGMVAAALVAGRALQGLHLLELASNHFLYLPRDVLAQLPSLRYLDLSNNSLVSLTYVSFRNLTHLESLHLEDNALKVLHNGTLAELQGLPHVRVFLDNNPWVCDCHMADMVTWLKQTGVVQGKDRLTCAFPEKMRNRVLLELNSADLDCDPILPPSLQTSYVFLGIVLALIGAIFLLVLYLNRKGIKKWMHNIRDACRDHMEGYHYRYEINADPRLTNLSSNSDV
The experiment in a line: flow cytometry, CHO-K1/cynomolgus 5T4 transfectants (FIG. 7). The procedure:
as §1

B1: ALG.APV-191 (bispecific antibody)
chain: EVQLLESGGGLVQPGGSLRLSCAASGFTFDYGSMYWVRQAPGKGLEWVSSISSGSGSTYYADSVKGRFTISHDNSKNTLYLQMNSLRAEDTAVYYCARSSYYGSYYSIDYWGQGTLVTVSSGGGGSGGGGSGGGGSGGGGSDIQMTQSPSSLSASVGDRVTITCRASQSISSYLNWYQQKPGKAPKLLIYAASSLHSGVPSRFSGSGSGTDFTLTISSLQPEDFATYYCQQYYDNLPTFGQGTKLEIKSSEPKSSDKTHTCPPCPAPEAAGAPSVFLFPPKPKDTLMISRTPEVTCVVVDVSHEDPEVKFNWYVDGVEVHNAKTKPREEQYNSTYRVVSVLTVLHQDWLNGKEYKCAVSNKALPAPIEKTISKAKGQPREPQVYTLPPSRDELTKNQVSLTCLVKGFYPSDIAVEWESNGQPENNYKTTPPVLDSDGSFFLYSKLTVDKSRWQQGNVFSCSVMHEALHNHYTQKSLSLSPGSGGGGSGGGGSGGGGSPSEVQLLESGGGLVQPGGSLRLSCAASGFTFSSYAMSWVRQAPGKCLEWVSAISGSGGSTYYADSVKGRFTISRDNSKNTLYLQMNSLRAEDTAVYYCARYYGGYYSAWMDYWGQGTLVTVSSGGGGSGGGGSGGGGSGGGGSDIQMTQSPSSLSASVGDRVTITCRASQSISSFLNWYQQKPGKAPKLLIYAASSLQSGVPSRFSGSGSGTDFTLTISSLQPEDFATYYCQQTYGYLHTFGCGTKLEIKS
notes: scFv-Fc-scFv (ADAPTIR) homodimer
On to B1, for which the binding result with human 5T4 on cells and in the test with cynomolgus 5T4 on cells was “binds” throughout.
